Experimental data from the RNAGym collection of RNA variant scans (doi:10.7554/elife.80360).

B1: CPEB3 Ribozyme (parent)
chain: GGGGGCCACAGCAGAAGCGUUCACGUCGCGGCCCCUGUCAGAUUCUGGUGAAUCUGCGAAUUCUGCUGU

Variants of: B1
Test: self-cleavage, relative activity (ratio to wild type); higher = more cleavage; co-transcriptional
GGGGGCCACAGCAGAAGCGUUCACGUCGCGGCCCCUGUCAGAUUCUGGUGAAUCUGCACAUUCUGCUGU [G58A A59C] showed a self-cleavage of 0.558.
Variant GGGGGCCACAGCAGAAGCGUUCACGUCGCGGCCCCUGUCAGAUUCUGGUGAAUCUGCAGAUUCUGCUGU [G58A A59G] has a self-cleavage of 0.949.
GGGGGCCACAGCAGAAGCGUUCACGUCGCGGCCCCUGUCAGAUUCUGGUGAAUCUGCAUAUUCUGCUGU [G58A A59U] showed a self-cleavage of 0.592.
For GGGGGCCACAGCAGAAGCGUUCACGUCGCGGCCCCUGUCAGAUUCUGGUGAAUCUGUGAAUUCUGCUGG [C57U U69G], the self-cleavage was 0.473.
Work on GGGGGCCACAGCAGAAGCGUUCACGUCGCGGCCCCUGUCAGAUUCUGGUGAAUCUGUGAAUUCUGCUGA [C57U U69A] yielded a self-cleavage of 0.478.
With GGGGGCCACAGCAGAAGCGUUCACGUCGCGGCCCCUGUCAGAUUCUGGUGAAUCUGCCACUUCUGCUGU [G58C A60C] the self-cleavage was 0.359.
GGGGGCCACAGCAGAAGCGUUCACGUCGCGGCCCCUGUCAGAUUCUGGUGAAUCUGCCAGUUCUGCUGU [G58C A60G] gave a self-cleavage of 0.683.
For GGGGGCCACAGCAGAAGCGUUCACGUCGCGGCCCCUGUCAGAUUCUGGUGAAUCUGCCAAUUAUGCUGU [G58C C63A], the self-cleavage was 0.906.
Work on GGGGGCCACAGCAGAAGCGUUCACGUCGCGGCCCCUGUCAGAUUCUGGUGAAUCUGCCAAUUGUGCUGU [G58C C63G] yielded a self-cleavage of 0.823.
With GGGGGCCACAGCAGAAGCGUUCACGUCGCGGCCCCUGUCAGAUUCUGGUGAAUCUGCCAAUUUUGCUGU [G58C C63U] the self-cleavage was 0.997.
Variant GGGGGCCACAGCAGAAGCGUUCACGUCGCGGCCCCUGUCAGAUUCUGGUGAAUCUGCAAAUUCUGUUGU [G58A C66U] has a self-cleavage of 0.938.
Work on GGGGGCCACAGCAGAAGCGUUCACGUCGCGGCCCCUGUCAGAUUCUGGUGAAUCUGCAAAUUCUGAUGU [G58A C66A] yielded a self-cleavage of 0.81.
GGGGGCCACAGCAGAAGCGUUCACGUCGCGGCCCCUGUCAGAUUCUGGUGAAUCUGCAAAUUCUGGUGU [G58A C66G] showed a self-cleavage of 0.881.
For GGGGGCCACAGCAGAAGCGUUCACGUCGCGGCCCCUGUCAGAUUCUGGUGAAUCUGCAAAUUCUGCCGU [G58A U67C], the self-cleavage was 0.993.
With GGGGGCCACAGCAGAAGCGUUCACGUCGCGGCCCCUGUCAGAUUCUGGUGAAUCUGCAAAUUCUGCAGU [G58A U67A] the self-cleavage was 0.968.
Variant GGGGGCCACAGCAGAAGCGUUCACGUCGCGGCCCCUGUCAGAUUCUGGUGAAUCUGCAAAUUCUACUGU [G58A G65A] has a self-cleavage of 0.901.
For GGGGGCCACAGCAGAAGCGUUCACGUCGCGGCCCCUGUCAGAUUCUGGUGAAUCUGCAAAUUCUGCUAU [G58A G68A], the self-cleavage was 0.944.
In the case of GGGGGCCACAGCAGAAGCGUUCACGUCGCGGCCCCUGUCAGAUUCUGGUGAAUCUGCUUAUUCUGCUGU [G58U A59U], the self-cleavage is reported as 0.749.
With GGGGGCCACAGCAGAAGCGUUCACGUCGCGGCCCCUGUCAGAUUCUGGUGAAUCUGCUCAUUCUGCUGU [G58U A59C] the self-cleavage was 0.8.
Variant GGGGGCCACAGCAGAAGCGUUCACGUCGCGGCCCCUGUCAGAUUCUGGUGAAUCUGCUAGUUCUGCUGU [G58U A60G] has a self-cleavage of 0.977.
GGGGGCCACAGCAGAAGCGUUCACGUCGCGGCCCCUGUCAGAUUCUGGUGAAUCUGCUAUUUCUGCUGU [G58U A60U] gave a self-cleavage of 0.331.
GGGGGCCACAGCAGAAGCGUUCACGUCGCGGCCCCUGUCAGAUUCUGGUGAAUCUGUGAAUUCUGCAGU [C57U U67A] showed a self-cleavage of 0.365.
For GGGGGCCACAGCAGAAGCGUUCACGUCGCGGCCCCUGUCAGAUUCUGGUGAAUCUGUGAAUUCUGCCGU [C57U U67C], the self-cleavage was 0.465.
GGGGGCCACAGCAGAAGCGUUCACGUCGCGGCCCCUGUCAGAUUCUGGUGAAUCUGUGAAUUCUGCGGU [C57U U67G] gave a self-cleavage of 0.509.
GGGGGCCACAGCAGAAGCGUUCACGUCGCGGCCCCUGUCAGAUUCUGGUGAAUCUGCUAAUUCUCCUGU [G58U G65C] gave a self-cleavage of 0.863.
GGGGGCCACAGCAGAAGCGUUCACGUCGCGGCCCCUGUCAGAUUCUGGUGAAUCUGCUAAUUCCGCUGU [G58U U64C] showed a self-cleavage of 0.959.
In the case of GGGGGCCACAGCAGAAGCGUUCACGUCGCGGCCCCUGUCAGAUUCUGGUGAAUCUGCUAAUUCGGCUGU [G58U U64G], the self-cleavage is reported as 0.971.
Variant GGGGGCCACAGCAGAAGCGUUCACGUCGCGGCCCCUGUCAGAUUCUGGUGAAUCUGCUAAUUCAGCUGU [G58U U64A] has a self-cleavage of 0.956.
GGGGGCCACAGCAGAAGCGUUCACGUCGCGGCCCCUGUCAGAUUCUGGUGAAUCUGCCAAUUCUGCCGU [G58C U67C] gave a self-cleavage of 0.961.
With GGGGGCCACAGCAGAAGCGUUCACGUCGCGGCCCCUGUCAGAUUCUGGUGAAUCUGCCAAUUCUGCAGU [G58C U67A] the self-cleavage was 0.988.
For GGGGGCCACAGCAGAAGCGUUCACGUCGCGGCCCCUGUCAGAUUCUGGUGAAUCUGUGAAGUCUGCUGU [C57U U61G], the self-cleavage was 0.463.
Variant GGGGGCCACAGCAGAAGCGUUCACGUCGCGGCCCCUGUCAGAUUCUGGUGAAUCUGCCUAUUCUGCUGU [G58C A59U] has a self-cleavage of 0.701.
With GGGGGCCACAGCAGAAGCGUUCACGUCGCGGCCCCUGUCAGAUUCUGGUGAAUCUGCCGAUUCUGCUGU [G58C A59G] the self-cleavage was 0.982.
Variant GGGGGCCACAGCAGAAGCGUUCACGUCGCGGCCCCUGUCAGAUUCUGGUGAAUCUGCCCAUUCUGCUGU [G58C A59C] has a self-cleavage of 0.636.
With GGGGGCCACAGCAGAAGCGUUCACGUCGCGGCCCCUGUCAGAUUCUGGUGAAUCUGCUAAUUCUGCAGU [G58U U67A] the self-cleavage was 0.982.
GGGGGCCACAGCAGAAGCGUUCACGUCGCGGCCCCUGUCAGAUUCUGGUGAAUCUGCCAAUUCUGCUUU [G58C G68U] showed a self-cleavage of 1.02.
In the case of GGGGGCCACAGCAGAAGCGUUCACGUCGCGGCCCCUGUCAGAUUCUGGUGAAUCUGCCAAUUCUGCUAU [G58C G68A], the self-cleavage is reported as 1.
Work on GGGGGCCACAGCAGAAGCGUUCACGUCGCGGCCCCUGUCAGAUUCUGGUGAAUCUGCCAAUUCUGCUCU [G58C G68C] yielded a self-cleavage of 0.963.
Work on GGGGGCCACAGCAGAAGCGUUCACGUCGCGGCCCCUGUCAGAUUCUGGUGAAUCUGCUAAGUCUGCUGU [G58U U61G] yielded a self-cleavage of 0.908.
